Tested on: MS2 coat protein
Assay: apparent KD of MS2 coat protein; designed switch direction (-1 OFF switch, 1 ON switch): 1; higher = weaker reporter binding
Summary of the method: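 Designed RNA switches were transcribed on Illumina chips by stalled E. coli RNA polymerase and titrated with SNAP-549-labelled MS2 coat protein from 0.7 or 1.5 nM, doubling to 3 µM. Step length ran from 0.8–1.5 h at the lowest concentration to 10–20 min at the highest. The apparent KD is the median over clusters for each design, from curve-fitted normalised cluster fluorescence.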

[1] = input ligand: microRNA oligo, concentration not stated
[2] = Eterna round: R95, input ligand: FMN 200 uM
[3] = Eterna round: R95, input ligand: microRNA oligo, concentration not stated
[4] = Eterna round: R95, input ligand: none

Sequence	apparent KD of MS2 coat protein (input ligand: FMN 200 uM) [nM]	apparent KD of MS2 coat protein [1] [nM]	apparent KD of MS2 coat protein (input ligand: none) [nM]	apparent KD of MS2 coat protein [2] [nM]	apparent KD of MS2 coat protein [3] [nM]	apparent KD of MS2 coat protein [4] [nM]
UAAAGAUCGCGAGGAUAUCGCGAGGAUCACCCGUGAGAAGGCGCAGAGCCGAGGAUCACCCGGCUGAUCCUGAGGAGGAGGUAA (Eterna round: R96, puzzle: Same State NG 1)	249	410	556	–	–	–
UGUCCAGCCUGAGCUGGACAAAAGCAUGUACAUGAGGAUCACCCAUGUUCAUGUACAAGCUUUUUGCUCGUCUUAAC [salish99_208a_r3_033] (puzzle: Sensor for hsa-mir-208a)	–	–	–	354	14.1	465
GCUCGUAUCACAACCGACAUGAGGAUCACCCAUGUAUGUUGGUAGGAUAUCUAUAUUAAGGAUAUAGAGAAGGGCCGAACGAGC [SameState NG3 #13] (Eterna round: R96, puzzle: Same State NG 3)	14.6	10.4	18.7	–	–	–
UCUUGGUUUUUGCUCGUUUUUUGUGUUGAACAUGAGGAUCACCCAUGUAUUGUACAGUCCGAUUUAAUAAUGGUCCG [JMF 57] (puzzle: Sensor for hsa-mir-208a)	–	–	–	31.5	26	33.8
GGUCGGACUCACAUGAGGAUCACCCAUGUUGGCGAAAGCCGGCAGGAUAUCUGUCCGAAAAGGUCAGAGAAGGGUCAACCGACC [Fiskers NG3ss - 59] (Eterna round: R96, puzzle: Same State NG 3)	322	82.4	267	–	–	–
AAAACACAUGAGGAUCACCCAUGUACCAGGUACAUAGGAUAUCCAGGCGCCAAAUAGCGCGGAGAAGGAUGGAAAA [Radireatdi] (puzzle: Same State 1)	–	–	–	78.2	237	1760
CCGAUCUACCGAAAGGUAGAUGGGCUUGUACAUGAGGAUCACCCAUGUCAGUACAAGCUUUUUGCUCCUCUUAUCCU [salish99-hsa-208a-40] (Eterna round: R96, puzzle: Sensor for hsa-mir-208a)	41.8	14	42.7	–	–	–
AACAAUCUAUCUGAGGAUAUCAUGAAAUAAACAUGAGGAUCACCCAUGUGCAGGAAAUCUGCAUAUGAGAAGGCAGAUAGAUUGA [salish99_ss2_r3_043] (puzzle: Same State 2)	–	–	–	33.9	1240	4600
CUGAGCAAGCAAGGAUAUCACGUCGAAUAGACGUGAGAAGGUGCUCCUUACAUGAGGAUCACCCAUGUAUAACAUGAAGCUCAG [SSNG1/10-A1] (Eterna round: R96, puzzle: Same State NG 1)	254	869	1260	–	–	–
GGUUUAGUCGAUUGCCGUUGCACUCGAAAACAUGAGGAUCACCCAUGUUUGGGACAAGCUUUGCUCCUCGUCUUUCC [Sous] (puzzle: Sensor for hsa-mir-208a)	–	–	–	240	67.1	453
GGUAGGUUACUACCAACACAUGAGGAUCACCCAUGUUAGUGGGAGGAUAUGGUACCUAUUUGGUACCAGAAGGCCUUGUUAAUU [Fiskers NG3ss - 14] (Eterna round: R96, puzzle: Same State NG 3)	43.7	62.8	87.6	–	–	–
GUAGUACAUGAGGAUCACCCAUGUUUCCUCCAAGAGUUCUUCGAGGAUAUGUCAUGGAAUCCACAAUAGAAGGCGGAGAACCAA [Eternabot solution 39] (Eterna round: R96, puzzle: Same State NG 3)	403	526	462	–	–	–
CUGAGCAGUCAAGGAUAUCACGUCGAUUAGACGUGAGAAGGUGAUCAUUACAUGAGGAUCACCCAUGUGUUACAUGGAGCUCAG [Brourd's SSNG1/1-A2 mod 5] (Eterna round: R96, puzzle: Same State NG 1)	413	49.1	358	–	–	–
GGAUGAUUAACAGGAUAUCAUUUGUAAAUUGGUUGAGAAGGGUUAAUGAUUUAAACGACCUGUUACAUGAGGAUCACCCAUGUU [SameState NG1 #1] (Eterna round: R96, puzzle: Same State NG 1)	–	45.6	–	–	–	–
GAGUGGUGGAGAGGAUAUACAUUGUUAUUCACUGUAGAAGGUUCUAACAUGAGGAUCACCCAUGUAGGACUAUUCCUGAGUUUU [Parity 56 - Jieux - Same State NG 1] (Eterna round: R96, puzzle: Same State NG 1)	–	8.92	–	–	–	–
GGUCGGACUCACAUGAGGAUCACCCAUGUUGGCGAAAGCCGGCAGGAUAUCUGUCCGAAAAGGUCAGAGAAGGGCUAACCGACC [Fiskers NG3ss - 60] (Eterna round: R96, puzzle: Same State NG 3)	65.7	186	188	–	–	–

Sequence	apparent KD of MS2 coat protein (input ligand: FMN 200 uM) [nM]	apparent KD of MS2 coat protein [1] [nM]	apparent KD of MS2 coat protein (input ligand: none) [nM]	apparent KD of MS2 coat protein [2] [nM]	apparent KD of MS2 coat protein [3] [nM]	apparent KD of MS2 coat protein [4] [nM]
AAGAAAGACGCAGGAUAUCAGUGCAAACCGCACUGAGAAGGGUGAGACAUGAGGAUCACCCAUGUAACACGGCAAAACACCGUG [Teinre] (Eterna round: R96, puzzle: Same State NG 1)	1240	49.3	191	–	–	–
AGUCCAGCCUGAGCUGGACAAAAGCAUGUACAUGAGGAUCACCCAUGUCAUGUACAAGCUUUUUGCUCGUCUUAAUA [JL zipper 49] (Eterna round: R96, puzzle: Sensor for hsa-mir-208a)	600	16.2	471	–	–	–
AAUUAAGAUCAAGGAUAUCACGUCGAAUAGACGUGAGAAGGUGAUCAUAACAUGAGGAUCACCCAUGUAUUACAUGAAUUAAUU [SSNG1/2-B1] (Eterna round: R96, puzzle: Same State NG 1)	71.3	177	289	–	–	–
UUAAUUUAUUGAGGAUAUUAUGUCGACUGAGUUGACAUGAGGAUCACCCAUGUGAGAAGUGGUAUUAAGAAGGCAAUAUUCAUA [JR_SSNG2_Sub087] (Eterna round: R96, puzzle: Same State NG 2)	39.8	118	115	–	–	–
GUAGCAUACCGAGGAUAUUCAUAUUAACAUGAGGAUCACCCAUGUUUAGGUCGAUUACGACCUUGGGAGAAGGCGGAAUGCUAC [Xeonanis - 20 Mod33] (Eterna round: R96, puzzle: Same State NG 2)	12.3	15.4	25.5	–	–	–
AGUCCAGCAAGAGCUGGACAAAAGCAUGUACAUGAGGAUCACCCAUGUUCAUGUACAAGCUUUUUGCUCGUCUUAAA [Mat - hsa-mir-208a - Mod of JL - 57] (puzzle: Sensor for hsa-mir-208a)	–	–	–	413	16.5	659
GCCCGACUCACAGGAUAUGUACCGCCCGAAACAACAGAAGGGUGAGAUCCGGCAUGCACUGACAUGAGGAUCACCCAUGUCCUU [Gebege] (Eterna round: R96, puzzle: Same State NG 1)	520	311	765	–	–	–
AAACGAAACACGGCCACAUGAGGAUCACCCAUGUCGAGUUCACAGGAUAUACCUACGUCCUCGUGGUAGAAGGGUGAGGCUGUG [Rienat] (Eterna round: R96, puzzle: Same State NG 3)	750	39.5	215	–	–	–
GGUGCCAAUAAAGCCUACAUGAGGAUCACCCAUGUAUGUAGGUAGGAUAUCGUUUGCAAAGCAAACGAGAAGGGCCUAGGCACC [Mat - Same State NG 3 - JL Mod - D58] (Eterna round: R96, puzzle: Same State NG 3)	27	43.7	53.1	–	–	–
AUAAAACAUGAGGAUCACCCAUGUCAACAAAGUCGAGGAUAUGGGCAAAUAAAAUAAGAACCAGAAGGCGAAUAAG [salish99_SS1_r3_004] (puzzle: Same State 1)	–	–	–	30.7	88	266
UGUUGUAUUACAGGAUAUCUAGUAUUUUUGUUUAGAGAAGGGUAUUCACAUGAGGAUCACCCAUGUAUAUACGAGGAAGUUGUG [JMF's solution 47] (Eterna round: R96, puzzle: Same State NG 1)	–	42.3	–	–	–	–
GCUAGAAUUAAAGCCAACAUGAGGAUCACCCAUGUAUGUUGGCAGGAUAUCGUUUGCAAAGCAAACGAGAAGGGCCAAACUAGC [Mat - Same State NG 3 - JL Mod - D2] (Eterna round: R96, puzzle: Same State NG 3)	43.2	94.1	125	–	–	–
GGUGGGUUACUACCCACACAUGAGGAUCACCCAUGUAUUGGGAAGGAUAUGGUGCCUAUUUGGUACCAGAAGGUCCUGAAGGUG [SS-NG3-LRO17] (Eterna round: R96, puzzle: Same State NG 3)	980	571	1770	–	–	–
AGAUCAUGACGAGGAUAUGCCACAUGAGGAUCACCCAUGUAUGUGGUAGGACGGAAACGUCCAAAGCAGAAGGCGUCGUGGUCA [Mat - Same State NG 2 - JL mod - D35] (Eterna round: R96, puzzle: Same State NG 2)	23.1	44.8	41.7	–	–	–
AGGAAGGAGACUGAGGAUAUCGUUGAAAAGACAUGAGGAUCACCCAUGUGUAUAGGAUUGGAGAACGAGAAGGCAGAGGAGUGGA [JR_SS2_Sub044] (puzzle: Same State 2)	–	–	–	29.2	33.3	37.5
